Here are results for 1 molecule from PMC12631472, “Low-Cost Label-Free Electrochemical Aptasensor for Dual Detection of Dengue and Zika Using Fluorine-Doped Tin Oxide Modified with APTES and Gold Nanoparticles”.

The target of the series is Dengue NS1 (NS1-D) (Dengue virus serotype 4, UniProt P09866 775-1126). The experiment in a line: electrochemical impedance spectroscopy; PBS; 1000 ng/mL NS1-D; dRct 114.1 ± 0.2%; LoD 0.21 ng/mL; PBS or commercial human serum; aptamer immobilized at 4 °C in 0.8 M PB, 1.0 M NaCl, 5 mM MgCl2, 1 mM EDTA, pH 7; aptamer:total thiol 1:250; assay temperature not stated. Particulars: protein: commercial; chain copies: 2.
Chain of Dengue NS1 (NS1-D) (P09866 775-1126): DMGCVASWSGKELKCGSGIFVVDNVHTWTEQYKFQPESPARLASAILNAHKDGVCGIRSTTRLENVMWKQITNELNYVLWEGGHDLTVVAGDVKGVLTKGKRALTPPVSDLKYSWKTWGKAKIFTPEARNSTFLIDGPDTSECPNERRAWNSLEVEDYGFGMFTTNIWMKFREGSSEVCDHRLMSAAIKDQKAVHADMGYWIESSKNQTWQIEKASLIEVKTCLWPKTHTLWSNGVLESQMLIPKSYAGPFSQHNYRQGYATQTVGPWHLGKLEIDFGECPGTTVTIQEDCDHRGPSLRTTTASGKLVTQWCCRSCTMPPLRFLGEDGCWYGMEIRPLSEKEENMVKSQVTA

B1: NS1 DNA aptamer (structured_DNA)
DNA: TTTTAGCGGATCCGATGGGTGGGGGGGTGGGTAGGATCCGCG
modifications: 5'-HS-(CH2)6 thiol
For B1, the binding result is on record as “binds”.
